Laboratory results reported in publication PMC3269026 (Frontiers in Microbiology, 2012).

Biological target: T1, translocated intimin receptor (Tir) of EPEC, delivered to HEp-2 cells (EPEC (strain JPN15.96), UniProt B7UM99 1-550)
T1 sequence: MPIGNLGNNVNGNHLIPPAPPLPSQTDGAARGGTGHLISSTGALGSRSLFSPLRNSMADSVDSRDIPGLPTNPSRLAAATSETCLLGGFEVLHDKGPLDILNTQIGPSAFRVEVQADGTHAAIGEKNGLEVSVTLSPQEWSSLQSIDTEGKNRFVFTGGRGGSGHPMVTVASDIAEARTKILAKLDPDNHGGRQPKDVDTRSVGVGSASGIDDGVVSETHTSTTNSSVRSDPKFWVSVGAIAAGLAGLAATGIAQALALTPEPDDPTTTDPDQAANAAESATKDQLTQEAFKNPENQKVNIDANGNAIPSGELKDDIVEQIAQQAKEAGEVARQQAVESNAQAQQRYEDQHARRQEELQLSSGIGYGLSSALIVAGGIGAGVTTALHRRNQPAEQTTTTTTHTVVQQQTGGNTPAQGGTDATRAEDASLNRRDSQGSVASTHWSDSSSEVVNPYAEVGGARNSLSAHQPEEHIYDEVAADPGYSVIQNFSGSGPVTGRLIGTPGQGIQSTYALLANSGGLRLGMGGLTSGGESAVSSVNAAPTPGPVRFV
Experiment: bacterial adherence to Tir-primed cells

B1: EHEC intimin (natural protein)
chain: NGENYFKLGSDSKLLTHDSYQNRLFYTLKTGETVADLSKSQDINLSTIWSLNKHLYSSESEMMKAAPGQQIILPLKKLPFEYSALPLLGSAPLVAAGGVAGHTNKLTKMSPDVTKSNMTDDKALNYAAQQAASLGSQLQSRSLNGDYAKDTALGIAGNQASSQLQAWLQHYGTAEVNLQSGNNFDGSSLDFLLPFYDSEKMLAFGQVGARYIDSRFTANLGAGQRFFLPANMLGYNVFIDQDFSGDNTRLGIGGEYWRDYFKSSVNGYFRMSGWHESYNKKDYDERPANGFDIRFNGYLPSYPALGAKLIYEQYYGDNVALFNSDKLQSNPGAATVGVNYTPIPLVTMGIDYRHGTGNENDLLYSMQFRYQFDKSWSQQIEPQYVNELRTLSGSRYDLVQRNNNIILEYKKQDILSLNIPHDINGTEHSTQKIQLIVKSKYGLDRIVWDDSALRSQGGQIQHSGSQSAQDYQAILPAYVQGGSNIYKVTARAYDRNGNSSNNVQLTITVLSNGQVVDQVGVTDFTADKTSAKADNADTITYTATVKKNGVAQANVPVSFNIVSGTATLGANSAKTDANGKATVTLKSSTPGQVVVSAKTAEMTSALNASAVIFFDQTKASITEIKADKTTAVANGKDAIKYTVKVMKNGQPVNNQSVTFSTNFGMFNGKSQTQATTGNDGRATITLTSSSAGKATVSATVSDGAEVKATEVTFFDELKIDNKVDIIGNNVRGELPNIWLQYGQFKLKASGGDGTYSWYSENTSIATVDASGKVTLNGKGSVVIKATSGDKQTVSYTIKAPSYMIKVDKQAYYADAMSICKNLLPSTQTVLSDIYDSWGAANKYSHYSSMNSITAWIKQTSSEQRSGVSSTYNLITQNPLPGVNVNTPNVYAVCVE
fold binding over C. rodentiumΔeae: ~20 fold
